Measurements: US20230174608A1 (published 2023)
Positions count from the first letter of the chain named. *1 amine or outer side, *2 acyl side, *3 side chain or, on linkers, in order; H or OH if unused. Where no end group is shown, it is not given here. Side-chain parts run from the residue outwards. [ ]: non-standard residue; d: D form. The star is where a group is joined. C18 diacid = O=C(O)CCCCCCCCCCCCCCCCC(=O)*; γGlu = O=C(O)[C@H](CCC(=O)[*:2])N[*:1]; AEEA = NCCOCCOCC(=O)O; Aib = CC(C)(N)C(=O)O

B1: dgc007 (peptide)
peptide: HXQGTFTSDYSKYLDERAAKEFIAWLESGG
HELM: PEPTIDE1{H.[Aib].Q.G.T.F.T.S.D.Y.S.K.Y.L.D.E.R.A.A.K.E.F.I.A.W.L.E.S.G.G.[am]}|PEPTIDE2{[CCCCCCCCCCCCCCCC(=O)[*:2]].[gGlu]}$PEPTIDE1,PEPTIDE2,20:R3-2:R2$$$V2.0; N-terminus assumed
SMILES: CCCCCCCCCCCCCCCC(=O)N[C@@H](CCC(=O)NCCCC[C@H](NC(=O)[C@H](C)NC(=O)[C@H](C)NC(=O)[C@H](CCCNC(=N)N)NC(=O)[C@H](CCC(=O)O)NC(=O)[C@H](CC(=O)O)NC(=O)[C@H](CC(C)C)NC(=O)[C@H](Cc1ccc(O)cc1)NC(=O)[C@H](CCCCN)NC(=O)[C@H](CO)NC(=O)[C@H](Cc1ccc(O)cc1)NC(=O)[C@H](CC(=O)O)NC(=O)[C@H](CO)NC(=O)[C@@H](NC(=O)[C@H](Cc1ccccc1)NC(=O)[C@@H](NC(=O)CNC(=O)[C@H](CCC(N)=O)NC(=O)C(C)(C)NC(=O)[C@@H](N)Cc1c[nH]cn1)[C@@H](C)O)[C@@H](C)O)C(=O)N[C@@H](CCC(=O)O)C(=O)N[C@@H](Cc1ccccc1)C(=O)N[C@H](C(=O)N[C@@H](C)C(=O)N[C@@H](Cc1c[nH]c2ccccc12)C(=O)N[C@@H](CC(C)C)C(=O)N[C@@H](CCC(=O)O)C(=O)N[C@@H](CO)C(=O)NCC(=O)NCC(N)=O)[C@@H](C)CC)C(=O)O
B2: dgc010 (peptide)
peptide: B1 peptide with D15E
HELM: PEPTIDE1{H.[Aib].Q.G.T.F.T.S.D.Y.S.K.Y.L.E.E.R.A.A.K.E.F.I.A.W.L.E.S.G.G.[am]}|PEPTIDE2{[CCCCCCCCCCCCCCCC(=O)[*:2]].[gGlu].[gGlu]}$PEPTIDE1,PEPTIDE2,20:R3-3:R2$$$V2.0; N-terminus assumed
SMILES: CCCCCCCCCCCCCCCC(=O)N[C@@H](CCC(=O)N[C@@H](CCC(=O)NCCCC[C@H](NC(=O)[C@H](C)NC(=O)[C@H](C)NC(=O)[C@H](CCCNC(=N)N)NC(=O)[C@H](CCC(=O)O)NC(=O)[C@H](CCC(=O)O)NC(=O)[C@H](CC(C)C)NC(=O)[C@H](Cc1ccc(O)cc1)NC(=O)[C@H](CCCCN)NC(=O)[C@H](CO)NC(=O)[C@H](Cc1ccc(O)cc1)NC(=O)[C@H](CC(=O)O)NC(=O)[C@H](CO)NC(=O)[C@@H](NC(=O)[C@H](Cc1ccccc1)NC(=O)[C@@H](NC(=O)CNC(=O)[C@H](CCC(N)=O)NC(=O)C(C)(C)NC(=O)[C@@H](N)Cc1c[nH]cn1)[C@@H](C)O)[C@@H](C)O)C(=O)N[C@@H](CCC(=O)O)C(=O)N[C@@H](Cc1ccccc1)C(=O)N[C@H](C(=O)N[C@@H](C)C(=O)N[C@@H](Cc1c[nH]c2ccccc12)C(=O)N[C@@H](CC(C)C)C(=O)N[C@@H](CCC(=O)O)C(=O)N[C@@H](CO)C(=O)NCC(=O)NCC(N)=O)[C@@H](C)CC)C(=O)O)C(=O)O
B3: dgc005 (peptide)
peptide: B1 peptide with D15E, S28A
HELM: PEPTIDE1{H.[Aib].Q.G.T.F.T.S.D.Y.S.K.Y.L.E.E.R.A.A.K.E.F.I.A.W.L.E.A.G.G.[am]}|PEPTIDE2{[CCCCCCCCCCCCCCCC(=O)[*:2]].[gGlu].[gGlu]}$PEPTIDE1,PEPTIDE2,20:R3-3:R2$$$V2.0; N-terminus assumed
SMILES: CCCCCCCCCCCCCCCC(=O)N[C@@H](CCC(=O)N[C@@H](CCC(=O)NCCCC[C@H](NC(=O)[C@H](C)NC(=O)[C@H](C)NC(=O)[C@H](CCCNC(=N)N)NC(=O)[C@H](CCC(=O)O)NC(=O)[C@H](CCC(=O)O)NC(=O)[C@H](CC(C)C)NC(=O)[C@H](Cc1ccc(O)cc1)NC(=O)[C@H](CCCCN)NC(=O)[C@H](CO)NC(=O)[C@H](Cc1ccc(O)cc1)NC(=O)[C@H](CC(=O)O)NC(=O)[C@H](CO)NC(=O)[C@@H](NC(=O)[C@H](Cc1ccccc1)NC(=O)[C@@H](NC(=O)CNC(=O)[C@H](CCC(N)=O)NC(=O)C(C)(C)NC(=O)[C@@H](N)Cc1c[nH]cn1)[C@@H](C)O)[C@@H](C)O)C(=O)N[C@@H](CCC(=O)O)C(=O)N[C@@H](Cc1ccccc1)C(=O)N[C@H](C(=O)N[C@@H](C)C(=O)N[C@@H](Cc1c[nH]c2ccccc12)C(=O)N[C@@H](CC(C)C)C(=O)N[C@@H](CCC(=O)O)C(=O)N[C@@H](C)C(=O)NCC(=O)NCC(N)=O)[C@@H](C)CC)C(=O)O)C(=O)O
B4: dgc006 (peptide)
peptide: H[Aib]QGTFTSDYSKYLEERAAKEFIAWLEAGG-NH2
modifications: not fully specified (residue 20)
B5: dgc012 (peptide)
peptide: H[dS]QGTFTSDYSKYLEERAAK([AEEA-AEEA-γGlu-C18 diacid])EFVAWLEGG-NH2
modifications: N-terminus assumed
SMILES: CC(C)C[C@H](NC(=O)[C@H](Cc1c[nH]c2ccccc12)NC(=O)[C@H](C)NC(=O)[C@@H](NC(=O)[C@H](Cc1ccccc1)NC(=O)[C@H](CCC(=O)O)NC(=O)[C@H](CCCCNC(=O)COCCOCCNC(=O)COCCOCCNC(=O)CC[C@H](NC(=O)CCCCCCCCCCCCCCCCC(=O)O)C(=O)O)NC(=O)[C@H](C)NC(=O)[C@H](C)NC(=O)[C@H](CCCNC(=N)N)NC(=O)[C@H](CCC(=O)O)NC(=O)[C@H](CCC(=O)O)NC(=O)[C@H](CC(C)C)NC(=O)[C@H](Cc1ccc(O)cc1)NC(=O)[C@H](CCCCN)NC(=O)[C@H](CO)NC(=O)[C@H](Cc1ccc(O)cc1)NC(=O)[C@H](CC(=O)O)NC(=O)[C@H](CO)NC(=O)[C@@H](NC(=O)[C@H](Cc1ccccc1)NC(=O)[C@@H](NC(=O)CNC(=O)[C@H](CCC(N)=O)NC(=O)[C@@H](CO)NC(=O)[C@@H](N)Cc1c[nH]cn1)[C@@H](C)O)[C@@H](C)O)C(C)C)C(=O)N[C@@H](CCC(=O)O)C(=O)NCC(=O)NCC(N)=O
B6: dgc008 (peptide)
peptide: B1 peptide with D15E
HELM: PEPTIDE1{H.[Aib].Q.G.T.F.T.S.D.Y.S.K.Y.L.E.E.R.A.A.K.E.F.I.A.W.L.E.S.G.G.[am]}|PEPTIDE2{[CCCCCCCCCCCCCCCC(=O)[*:2]].[gGlu]}$PEPTIDE1,PEPTIDE2,20:R3-2:R2$$$V2.0; N-terminus assumed
SMILES: CCCCCCCCCCCCCCCC(=O)N[C@@H](CCC(=O)NCCCC[C@H](NC(=O)[C@H](C)NC(=O)[C@H](C)NC(=O)[C@H](CCCNC(=N)N)NC(=O)[C@H](CCC(=O)O)NC(=O)[C@H](CCC(=O)O)NC(=O)[C@H](CC(C)C)NC(=O)[C@H](Cc1ccc(O)cc1)NC(=O)[C@H](CCCCN)NC(=O)[C@H](CO)NC(=O)[C@H](Cc1ccc(O)cc1)NC(=O)[C@H](CC(=O)O)NC(=O)[C@H](CO)NC(=O)[C@@H](NC(=O)[C@H](Cc1ccccc1)NC(=O)[C@@H](NC(=O)CNC(=O)[C@H](CCC(N)=O)NC(=O)C(C)(C)NC(=O)[C@@H](N)Cc1c[nH]cn1)[C@@H](C)O)[C@@H](C)O)C(=O)N[C@@H](CCC(=O)O)C(=O)N[C@@H](Cc1ccccc1)C(=O)N[C@H](C(=O)N[C@@H](C)C(=O)N[C@@H](Cc1c[nH]c2ccccc12)C(=O)N[C@@H](CC(C)C)C(=O)N[C@@H](CCC(=O)O)C(=O)N[C@@H](CO)C(=O)NCC(=O)NCC(N)=O)[C@@H](C)CC)C(=O)O
B7: dgc009 (peptide)
peptide: H[Aib]QGTFTSDYSKYLEERAAKEFIAWLESGG-NH2
modifications: not fully specified (residue 20); printed as HAibQGTFTSDYSKYLEERAAK*EFIAWLESGG
B8: dgc004 (peptide)
peptide: B1 peptide with D15E, S28A
HELM: PEPTIDE1{H.[Aib].Q.G.T.F.T.S.D.Y.S.K.Y.L.E.E.R.A.A.K.E.F.I.A.W.L.E.A.G.G.[am]}|PEPTIDE2{[CCCCCCCCCCCCCCCC(=O)[*:2]].[gGlu]}$PEPTIDE1,PEPTIDE2,20:R3-2:R2$$$V2.0; N-terminus assumed
SMILES: CCCCCCCCCCCCCCCC(=O)N[C@@H](CCC(=O)NCCCC[C@H](NC(=O)[C@H](C)NC(=O)[C@H](C)NC(=O)[C@H](CCCNC(=N)N)NC(=O)[C@H](CCC(=O)O)NC(=O)[C@H](CCC(=O)O)NC(=O)[C@H](CC(C)C)NC(=O)[C@H](Cc1ccc(O)cc1)NC(=O)[C@H](CCCCN)NC(=O)[C@H](CO)NC(=O)[C@H](Cc1ccc(O)cc1)NC(=O)[C@H](CC(=O)O)NC(=O)[C@H](CO)NC(=O)[C@@H](NC(=O)[C@H](Cc1ccccc1)NC(=O)[C@@H](NC(=O)CNC(=O)[C@H](CCC(N)=O)NC(=O)C(C)(C)NC(=O)[C@@H](N)Cc1c[nH]cn1)[C@@H](C)O)[C@@H](C)O)C(=O)N[C@@H](CCC(=O)O)C(=O)N[C@@H](Cc1ccccc1)C(=O)N[C@H](C(=O)N[C@@H](C)C(=O)N[C@@H](Cc1c[nH]c2ccccc12)C(=O)N[C@@H](CC(C)C)C(=O)N[C@@H](CCC(=O)O)C(=O)N[C@@H](C)C(=O)NCC(=O)NCC(N)=O)[C@@H](C)CC)C(=O)O
B9: dgc011 (peptide)
peptide: H[Aib]QGTFTSDYSKYLEERAAKEFIAWLEAGG-NH2
modifications: not fully specified (residue 20)

target: GLP-1 receptor (GLP-1R), stably expressed on HEK293 cells; assay: cell-based or functional assay

Row | GLP-1R (nM EC50), receptor-mediated cAMP production in HEK293 cells | Binder
1 | 0.28 nM | B1
2 | 0.537 nM | B2
3 | 0.484 nM | B3
4 | 0.472 nM | B4
5 | 0.044 nM | B5
6 | 0.742 nM | B6
7 | 0.092 nM | B7
8 | 0.113 nM | B8
9 | 0.955 nM | B9

target: Glucagon receptor (GCGR), stably expressed on HEK293 cells; assay: cell-based or functional assay

Row | GCGR (nM EC50), receptor-mediated cAMP production in HEK293 cells | Binder
10 | 0.971 nM | B1
11 | 0.614 nM | B2
12 | 1.16 nM | B3
13 | 6.41 nM | B4
14 | 2.17 nM | B5
15 | 2.03 nM | B6
16 | 8.22 nM | B7
17 | 5.84 nM | B8
18 | 4.13 nM | B9
